Data on 23 molecules can be found in patent US20260055205A1 (published 2026).

The target in this test is T1, human PSMA (human, UniProt Q04609 44-750, limits assumed).
T1 construct: also called huPSMA; hPSMA
In words: binding screen.

T1 sequence (Q04609 44-750 limits assumed): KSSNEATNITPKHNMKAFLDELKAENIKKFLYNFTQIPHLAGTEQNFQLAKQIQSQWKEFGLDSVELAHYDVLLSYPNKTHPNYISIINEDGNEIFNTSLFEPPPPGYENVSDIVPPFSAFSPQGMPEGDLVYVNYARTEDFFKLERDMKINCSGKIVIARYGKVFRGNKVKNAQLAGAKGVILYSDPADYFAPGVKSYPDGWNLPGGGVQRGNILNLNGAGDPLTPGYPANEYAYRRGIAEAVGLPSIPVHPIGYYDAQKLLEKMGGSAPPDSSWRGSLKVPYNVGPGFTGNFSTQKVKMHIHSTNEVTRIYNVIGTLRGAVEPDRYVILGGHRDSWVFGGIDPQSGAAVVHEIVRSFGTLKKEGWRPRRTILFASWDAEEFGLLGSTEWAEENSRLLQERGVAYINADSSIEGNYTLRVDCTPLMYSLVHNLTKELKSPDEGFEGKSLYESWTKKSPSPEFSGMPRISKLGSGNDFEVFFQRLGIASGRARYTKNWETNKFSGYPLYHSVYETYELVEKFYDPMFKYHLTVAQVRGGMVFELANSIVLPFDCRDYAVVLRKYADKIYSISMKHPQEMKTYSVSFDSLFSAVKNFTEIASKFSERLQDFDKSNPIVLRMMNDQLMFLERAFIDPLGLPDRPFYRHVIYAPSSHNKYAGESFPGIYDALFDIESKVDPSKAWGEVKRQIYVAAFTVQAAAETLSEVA

B1: PSMA.334 (bispecific antibody, V domains shown)
VH: QVQLVESGGGVVQPGRSLRLSCAASGRTFGIYVMGWFRQAPGKEREFVGAISWSGSNRKVSDSVKGRFTISRDNSKNTLYLQMNSLRAEDTAVYFCAASNKDYGRTWYDFNESDYWGQGTQVTVSS
notes: TCE with CD3.23; also called AC3736
B1: the Kd (commonly a measure of binding affinity in units of concentration) was 70.6 nM.

B2: PSMA.343 (bispecific antibody, V domains shown)
VH: QVQLVESGGGVVQPGRSLRLSCAASGRTFGIYVMGWFRQAPGKEREFVGAISWSGSNRKVSDSVKGRFTISRDNSKNTLYLQMNSLRAEDTAVTFCAGSNKLYGRTWYDFNESDYWGQGTQVTVSS
notes: TCE with CD3.23; also called AC3745
With B2, the binding result is on record as “no binding”.

B3: PSMA.347 (bispecific antibody, V domains shown)
VH: QVQLVESGGGVVQPGRSLRLSCAASGRTFGIYVWGWFRQAPGKEREFVGAMSWSGSNRKVSDSVKGRFTISRDNSKNTLYLQMNSLRAEDTAVYYCGASNKLYGRTWYDFNESDYWGQGTQVTVSS
notes: TCE with CD3.23; also called AC3749
Take B3: the Kd came to 7.3 nM.

B4: PSMA.356 (bispecific antibody, V domains shown)
VH: QVQLVESGGGVVQPGRSLRLSCAASGRTFGIYVWGWFRQAPGKEREFVGAMSWSGSNRKVSDSVKGRFTISRDNSKNTLYLQMNSLRAEDTAVYFCAASNKEYGRTWYDFNESDYWGQGTQVTVSS
notes: TCE with CD3.23; also called AC3758
Molecule B4 gave a Kd of 7.8 nM.

B5: PSMA.341 (bispecific antibody, V domains shown)
VH: QVQLVESGGGVVQPGRSLRLSCAASGRTFGIYVMGWFRQAPGKEREFVGAISWSGSNRKVSDSVKGRFTISRDNSKNTLYLQMNSLRAEDTAVKFCAGSNKLYGRTWYDFNESDYWGQGTQVTVSS
notes: TCE with CD3.23; also called AC3743
Take B5: the binding result is listed as “no binding”.

B6: PSMA.353 (bispecific antibody, V domains shown)
VH: QVQLVESGGGVVQPGRSLRLSCAASGRTFGIYVWGWFRQAPGKEREFVGAMSWSGSNRKVSDSVKGRFTISRDNSKNTLYLQMNSLRAEDTAVYFCGASNKLYGRTWYDFNESDYWGQGTQVTVSS
notes: TCE with CD3.23; also called AC3755
Molecule B6 had a Kd of 5.1 nM.

B7: PSMA.340 (bispecific antibody, V domains shown)
VH: QVQLVESGGGVVQPGRSLRLSCAASGRTFGIYVMGWFRQAPGKEREFVGAISWSGSNRKVSDSVKGRFTISRDNSKNTLYLQMNSLRAEDTAVGFCAGSNKLYGRTWYDFNESDYWGQGTQVTVSS
notes: TCE with CD3.23; also called AC3742
Consider B7, for which the binding result is reported as “no binding”.

B8: PSMA.336 (bispecific antibody, V domains shown)
VH: QVQLVESGGGVVQPGRSLRLSCAASGRTFGIYVMGWFRQAPGKEREFVGAISWSGSNRKVSDSVKGRFTISRDNSKNTLYLQMNSLRAEDTAVYFCAASNKGYGRTWYDFNESDYWGQGTQVTVSS
notes: TCE with CD3.23; also called AC3738
The molecule B8 showed a Kd of 129 nM.

B9: PSMA.359 (bispecific antibody, V domains shown)
VH: QVQLVESGGGVVQPGRSLRLSCAASGRTFGIYVWGWFRQAPGKEREFVGAMSWSGSNRKVSDSVKGRFTISRDNSKNTLYLQMNSLRAEDTAVRYCAGSNKLYGRTWYDFNESDYWGQGTQVTVSS
notes: TCE with CD3.23; also called AC3761
For B9, the binding result is on record as “no binding”.

B10: PSMA.358 (bispecific antibody, V domains shown)
VH: QVQLVESGGGVVQPGRSLRLSCAASGRTFGIYVWGWFRQAPGKEREFVGAMSWSGSNRKVSDSVKGRFTISRDNSKNTLYLQMNSLRAEDTAVYFCGGSNKLYGRTWYDFNESDYWGQGTQVTVSS
notes: TCE with CD3.23; also called AC3760
With B10, binding was characterised by a dissociation constant (Kd) of 6.5 nM.

B11: PSMA.338 (bispecific antibody, V domains shown)
VH: QVQLVESGGGVVQPGRSLRLSCAASGRTFGIYVMGWFRQAPGKEREFVGAISWSGSNRKVSDSVKGRFTISRDNSKNTLYLQMNSLRAEDTAVRFCAGSNKLYGRTWYDFNESDYWGQGTQVTVSS
notes: TCE with CD3.23; also called AC3740
Regarding B11, the binding result is on record as “no binding”.

B12: PSMA.350 (bispecific antibody, V domains shown)
VH: QVQLVESGGGVVQPGRSLRLSCAASGRTFGIYVWGWFRQAPGKEREFVGAMSWSGSNRKVSDSVKGRFTISRDNSKNTLYLQMNSLRAEDTAVYYCAASNKEYGRTWYDFNESDYWGQGTQVTVSS
notes: TCE with CD3.23; also called AC3752
B12 came in with a Kd of 7.4 nM.

B13: PSMA.345 (bispecific antibody, V domains shown)
VH: QVQLVESGGGVVQPGRSLRLSCAASGRTFGIYVWGWFRQAPGKEREFVGAMSWSGSNRKVSDSVKGRFTISRDNSKNTLYLQMNSLRAEDTAVYYCGGSNKLYGRTWYDFNESDYWGQGTQVTVSS
notes: TCE with CD3.23; also called AC3747
For the molecule B13, the Kd is 6.1 nM.

B14: PSMA.349 (bispecific antibody, V domains shown)
VH: QVQLVESGGGVVQPGRSLRLSCAASGRTFGIYVWGWFRQAPGKEREFVGAMSWSGSNRKVSDSVKGRFTISRDNSKNTLYLQMNSLRAEDTAVYYCAASNKDYGRTWYDFNESDYWGQGTQVTVSS
notes: TCE with CD3.23; also called AC3751
In turn, B14 displayed a Kd of 18 nM.

B15: PSMA.357 (bispecific antibody, V domains shown)
VH: QVQLVESGGGVVQPGRSLRLSCAASGRTFGIYVWGWFRQAPGKEREFVGAMSWSGSNRKVSDSVKGRFTISRDNSKNTLYLQMNSLRAEDTAVYFCAASNKGYGRTWYDFNESDYWGQGTQVTVSS
notes: TCE with CD3.23; also called AC3759
In turn, B15 had a dissociation constant Kd of 24.6 nM.

B16: PSMA.355 (bispecific antibody, V domains shown)
VH: QVQLVESGGGVVQPGRSLRLSCAASGRTFGIYVWGWFRQAPGKEREFVGAMSWSGSNRKVSDSVKGRFTISRDNSKNTLYLQMNSLRAEDTAVYFCAASNKDYGRTWYDFNESDYWGQGTQVTVSS
notes: TCE with CD3.23; also called AC3757
In the case of B16, the Kd was 17.8 nM.

B17: PSMA.346 (bispecific antibody, V domains shown)
VH: QVQLVESGGGVVQPGRSLRLSCAASGRTFGIYVWGWFRQAPGKEREFVGAMSWSGSNRKVSDSVKGRFTISRDNSKNTLYLQMNSLRAEDTAVDYCAASNKLYGRTWYDFNESDYWGQGTQVTVSS
notes: TCE with CD3.23; also called AC3748
As for B17, the binding result is “no binding”.

B18: PSMA.339 (bispecific antibody, V domains shown)
VH: QVQLVESGGGVVQPGRSLRLSCAASGRTFGIYVMGWFRQAPGKEREFVGAISWSGSNRKVSDSVKGRFTISRDNSKNTLYLQMNSLRAEDTAVNFCAGSNKLYGRTWYDFNESDYWGQGTQVTVSS
notes: TCE with CD3.23; also called AC3741
B18: the binding result is given as “no binding”.

B19: PSMA.337 (bispecific antibody, V domains shown)
VH: QVQLVESGGGVVQPGRSLRLSCAASGRTFGIYVMGWFRQAPGKEREFVGAISWSGSNRKVSDSVKGRFTISRDNSKNTLYLQMNSLRAEDTAVAFCAGSNKLYGRTWYDFNESDYWGQGTQVTVSS
notes: TCE with CD3.23; also called AC3739
B19: the binding result is given as “no binding”.

B20: PSMA.342 (bispecific antibody, V domains shown)
VH: QVQLVESGGGVVQPGRSLRLSCAASGRTFGIYVMGWFRQAPGKEREFVGAISWSGSNRKVSDSVKGRFTISRDNSKNTLYLQMNSLRAEDTAVSFCAGSNKLYGRTWYDFNESDYWGQGTQVTVSS
notes: TCE with CD3.23; also called AC3744
Regarding B20, the binding result is “no binding”.

B21: PSMA.352 (bispecific antibody, V domains shown)
VH: QVQLVESGGGVVQPGRSLRLSCAASGRTFGIYVWGWFRQAPGKEREFVGAMSWSGSNRKVSDSVKGRFTISRDNSKNTLYLQMNSLRAEDTAVDFCAASNKLYGRTWYDFNESDYWGQGTQVTVSS
notes: TCE with CD3.23; also called AC3754
On to B21, for which the binding result was “no binding”.

B22: PSMA.335 (bispecific antibody, V domains shown)
VH: QVQLVESGGGVVQPGRSLRLSCAASGRTFGIYVMGWFRQAPGKEREFVGAISWSGSNRKVSDSVKGRFTISRDNSKNTLYLQMNSLRAEDTAVYFCAASNKEYGRTWYDFNESDYWGQGTQVTVSS
notes: TCE with CD3.23; also called AC3737
As to B22, binding was characterised by a dissociation constant (Kd) of 24.8 nM.

B23: PSMA.351 (bispecific antibody, V domains shown)
VH: QVQLVESGGGVVQPGRSLRLSCAASGRTFGIYVWGWFRQAPGKEREFVGAMSWSGSNRKVSDSVKGRFTISRDNSKNTLYLQMNSLRAEDTAVYYCAASNKGYGRTWYDFNESDYWGQGTQVTVSS
notes: TCE with CD3.23; also called AC3753
Consider B23, for which binding was put at a Kd of 32.6 nM.
